Biological target: the activated zmTrpA variants (Zea mays)
Experiment: activity titration

Sequence of tryptophan synthase β-subunit TrpB1 from Zea mays (P43283 whole entry): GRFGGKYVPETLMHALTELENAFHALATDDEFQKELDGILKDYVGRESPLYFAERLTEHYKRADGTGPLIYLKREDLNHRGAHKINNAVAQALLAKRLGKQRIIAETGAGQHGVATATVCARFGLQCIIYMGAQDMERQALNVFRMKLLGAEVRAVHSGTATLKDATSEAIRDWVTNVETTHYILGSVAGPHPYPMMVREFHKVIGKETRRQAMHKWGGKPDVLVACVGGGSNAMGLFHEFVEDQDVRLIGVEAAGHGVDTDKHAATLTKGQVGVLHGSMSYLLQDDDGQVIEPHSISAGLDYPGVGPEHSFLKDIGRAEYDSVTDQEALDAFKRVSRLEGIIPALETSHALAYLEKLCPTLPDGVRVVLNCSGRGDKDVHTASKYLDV

Kd: 300 to 700 nM
Substance: tryptophan synthase β-subunit TrpB1 from Zea mays (from UniProt P43283 1-389) (enzyme)

From paper PMC7293203
